Target: human FcRn fused to a His-tag and glutathione S transferase (FcRn-His-GST), complex of FcRn heavy chain with beta-2-microglobulin (human) (UniProt P55899)
Test: AlphaScreen competition

Row | Substance | FcRn Binding ratio Variant / WT
1 | A327D (antibody) | 1.01
2 | A327H (antibody) | 1.29
3 | A327K (antibody) | 1.01
4 | A327L (antibody) | 1.55
5 | A327M (antibody) | 1.08
6 | A327Y (antibody) | 1.23
7 | A330F (antibody) | 25.3
8 | A330G (antibody) | 1.01
9 | A330H (antibody) | 9.87
10 | A330L/I332E (antibody) | 1.5
11 | A330P (antibody) | 5.48
12 | A330V (antibody) | 1.78
13 | A330W (antibody) | 1.02
14 | A330Y/I332E (antibody) | 1.53
15 | D221K (antibody) | 5.66
16 | D221Y (antibody) | 2.74
17 | D249Q (antibody) | 2.06
18 | D249Y (antibody) | 2.57
19 | D265F/N297E/I332E (antibody) | 1.38
20 | D265G (antibody) | 1.74
21 | D265P (antibody) | 1.18
22 | D265R (antibody) | 1.16
23 | D270I (antibody) | 1.23
24 | D270S (antibody) | 1.03

Row | Substance | FcRn Binding ratio Variant / WT
25 | E233G (antibody) | 2.09
26 | E233M (antibody) | 1.13
27 | E233R (antibody) | 1.05
28 | E233S (antibody) | 1.1
29 | E233T (antibody) | 1.19
30 | E233W (antibody) | 1.64
31 | E233Y (antibody) | 1.86
32 | E258Y (antibody) | 1.07
33 | E269F (antibody) | 1.51
34 | E269G (antibody) | 1.34
35 | E269I (antibody) | 1.26
36 | E269K (antibody) | 1.23
37 | E269M (antibody) | 1.11
38 | E269P (antibody) | 1.23
39 | E269S (antibody) | 1.31
40 | E269V (antibody) | 1.38
41 | E269W (antibody) | 1.19
42 | E269Y (antibody) | 24.8
43 | E272D (antibody) | 1.37
44 | E272H (antibody) | 1.45
45 | E272I (antibody) | 1.05
46 | E272L (antibody) | 1.81
47 | E272P (antibody) | 2.17
48 | E272R (antibody) | 1.83

Row | Substance | FcRn Binding ratio Variant / WT
49 | E272T (antibody) | 2.46
50 | E272V (antibody) | 1.77
51 | E272W (antibody) | 1.82
52 | E272Y (antibody) | 2.08
53 | E283H (antibody) | 6.25
54 | E283K (antibody) | 2.74
55 | E283P (antibody) | 1.33
56 | E283R (antibody) | 1.86
57 | E283Y (antibody) | 1.42
58 | E294G (antibody) | 1.25
59 | E294I (antibody) | 1.09
60 | E294K (antibody) | 1.16
61 | E318L (antibody) | 3.61
62 | E318R (antibody) | 1.17
63 | E318Y (antibody) | 6.14
64 | E333F (antibody) | 1.96
65 | E333L (antibody) | 1.03
66 | E333M (antibody) | 5.46
67 | F241E (antibody) | 1.09
68 | F241L (antibody) | 1.99
69 | F241L/V262I (antibody) | 1.37
70 | F241W (antibody) | 1.7
71 | F241W/F243W (antibody) | 1.12
72 | F241W/F243W/V262A/V264A (antibody) | 1.91

Row | Substance | FcRn Binding ratio Variant / WT
73 | F241Y/F243Y/V262T/V264T (antibody) | 1.89
74 | F243E (antibody) | 1.14
75 | F243L/V262I/V264W (antibody) | 1.35
76 | F243W (antibody) | 4.63
77 | G236A (antibody) | 1.75
78 | G236D (antibody) | 1.53
79 | G236E (antibody) | 1.46
80 | G236F (antibody) | 1.75
81 | G236H (antibody) | 1.48
82 | G236I (antibody) | 1.33
83 | G236K (antibody) | 1.38
84 | G236M (antibody) | 1.6
85 | G236N (antibody) | 1.89
86 | G236P (antibody) | 1.41
87 | G236Q (antibody) | 1.46
88 | G236T (antibody) | 1.56
89 | G236V (antibody) | 1.35
90 | G236W (antibody) | 1.52
91 | G236Y (antibody) | 1.52
92 | G237D (antibody) | 1.84
93 | G237E (antibody) | 1.36
94 | G237H (antibody) | 1.48
95 | G237I (antibody) | 1.01
96 | G237K (antibody) | 1.47

Row | Substance | FcRn Binding ratio Variant / WT
97 | G237L (antibody) | 5.91
98 | G237M (antibody) | 73.4
99 | G237N (antibody) | 1.39
100 | G237P (antibody) | 2.8
101 | G237Q (antibody) | 1.39
102 | G237R (antibody) | 1.36
103 | G237S (antibody) | 1.29
104 | G237T (antibody) | 1.32
105 | G237W (antibody) | 1.2
106 | G237Y (antibody) | 1.92
107 | G281D (antibody) | 1.33
108 | G281Y (antibody) | 1.46
109 | H224E (antibody) | 5.11
110 | H224Y (antibody) | 1.68
111 | H268E (antibody) | 1.71
112 | H268M (antibody) | 1.88
113 | H285D (antibody) | 2.4
114 | H285E (antibody) | 1.93
115 | H285K (antibody) | 1.76
116 | H285Q (antibody) | 1.38
117 | H285W (antibody) | 1.33
118 | H285Y (antibody) | 1.25
119 | I332D (antibody) | 1.75
120 | I332E (antibody) | 1.32

Row | Substance | FcRn Binding ratio Variant / WT
121 | I332H (antibody) | 1.24
122 | I332N (antibody) | 3.2
123 | I332Q (antibody) | 1.2
124 | I332T (antibody) | 1.02
125 | I332V (antibody) | 59.3
126 | I332Y (antibody) | 1.43
127 | I336E (antibody) | 8.11
128 | I336K (antibody) | 12.1
129 | K222Y (antibody) | 1.31
130 | K246Y (antibody) | 2.47
131 | K274E (antibody) | 1.05
132 | K274F (antibody) | 1.02
133 | K274G (antibody) | 1.04
134 | K274I (antibody) | 1.08
135 | K274M (antibody) | 1.01
136 | K274N (antibody) | 1.26
137 | K274T (antibody) | 1.08
138 | K288Y (antibody) | 1.1
139 | K320H (antibody) | 1.13
140 | K320L (antibody) | 1.07
141 | K320N (antibody) | 2.01
142 | K320W (antibody) | 1.11
143 | L234D (antibody) | 1.54
144 | L234E (antibody) | 1.25

Row | Substance | FcRn Binding ratio Variant / WT
145 | L234F (antibody) | 1.46
146 | L234G (antibody) | 2.54
147 | L234H (antibody) | 1.48
148 | L234I (antibody) | 1.26
149 | L234I/L235D (antibody) | 1.03
150 | L234N (antibody) | 1.06
151 | L234R (antibody) | 1.19
152 | L234V (antibody) | 1.45
153 | L234Y (antibody) | 1.9
154 | L235N (antibody) | 1.32
155 | L235Q (antibody) | 1.67
156 | L235S (antibody) | 1.51
157 | L235T (antibody) | 1.65
158 | L235V (antibody) | 1.31
159 | L235Y (antibody) | 1.02
160 | L328A (antibody) | 1.32
161 | L328D/I332E (antibody) | 11.8
162 | L328E/I332E (antibody) | 1.44
163 | L328F (antibody) | 2.06
164 | L328G (antibody) | 1.16
165 | L328H/I332E (antibody) | 1.16
166 | L328I/I332E (antibody) | 2.21
167 | L328N/I332E (antibody) | 1.18
